One block for each binder: values may come before it.
Tests used:
[1] = biological target: T1, Recombinant human EGFR (human, UniProt P00533 25-645); experiment: ELISA
[2] = biological target: T2, Human CD3 protein (human, UniProt P07766 23-126); experiment: ELISA
T2 chain: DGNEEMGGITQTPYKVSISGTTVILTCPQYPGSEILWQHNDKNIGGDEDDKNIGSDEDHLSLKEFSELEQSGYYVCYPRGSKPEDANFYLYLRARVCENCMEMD

[3] = biological target: T1, Recombinant human EGFR; experiment: ELISA; without uPA
[4] = biological target: T2, Human CD3 protein; experiment: ELISA; without uPA
[5] = biological target: T1, Recombinant human EGFR; experiment: ELISA; remark: listed apart in the source
[6] = biological target: T2, Human CD3 protein; experiment: ELISA
[7] = biological target: T1, Recombinant human EGFR; experiment: ELISA; remark: listed apart in the source
[8] = biological target: T2, Human CD3 protein; experiment: ELISA
[9] = biological target: T1, Recombinant human EGFR; experiment: ELISA; with uPA
[10] = biological target: T2, Human CD3 protein; experiment: ELISA; with uPA
[11] = biological target: T1, Recombinant human EGFR; experiment: ELISA; without uPA; remark: listed apart in the source
[12] = biological target: T2, Human CD3 protein; experiment: ELISA; without uPA

EC50 [1]: 0.255 µg/mL
EC50 [2]: 7.43 µg/mL
B1: 1.4.3M-Pa-Noncleavable (antibody)
chain 1: QDGNEEMGGIGGGSQDGNEEMGGGGGSGGGSGGSEVQLVESGGGLVQPGGSLRLSCAASGFTFNTYAMNWVRQAPGKGLEWVARIRSKYNNYATYYADSVKGRFTISRDDSKNTLYLQMNSLRAEDTAVYYCARHGNFGSSYVSYFAYWGQGTTVTVSSGGGSSGGGGSGGGGSQVQLQESGPGLVKPSETLSLTCTVSGGSVSSGDYYWTWIRQSPGKGLEWIGHIYYSGNTNYNPSLKSRLTISIDTSKTQFSLKLSSVTAADTAIYYCVRDRVTGAFDIWGQGTMVTVSSASTKGPSVFPLAPSSKSTSGGTAALGCLVKDYFPEPVTVSWNSGALTSGVHTFPAVLQSSGLYSLSSVVTVPSSSLGTQTYICNVNHKPSNTKVDKKVEPKSCPPCPAPEAAGGPSVFLFPPKPKDTLMISRTPEVTCVVVDVSHEDPEVKFNWYVDGVEVHNAKTKPREEQYNSTYRVVSVLTVLHQDWLNGKEYKCKVSNKALPAPIEKTISKAKGQPREPQVYTLPPSRDELTKNQVSLLCLVKGFYPSDIAVEWESNGQPENNYKTTPPVLDSDGSFFLHSKLTVDKSRWQQGNVFSCSVMHEALHNHYTQKSLSLSPGK
chain 2: not shown

EC50 [3]: 0.0154 µg/mL
EC50 [4]: 47.2 µg/mL
B2: 1.6.1M-Pa proBiTE (bispecific antibody)
heavy: QDGNEEMGGGSQDGNEEMGGIGGGSGGGGSGLSGRSDNHGGGGSEVQLVESGGGLVQPGGSLRLSCAASGFTFNTYAMNWVRQAPGKGLEWVARIRSKYNNYATYYADSVKGRFTISRDDSKNTLYLQMNSLRAEDTAVYYCARHGNFGSSYVSYFAYWGQGTTVTVSSASTKGPSVFPLAPSSKSTSGGTAALGCLVKDYFPEPVTVSWNSGALTSGVHTFPAVLQSSGLYSLSSVVTVPSSSLGTQTYICNVNHKPSNTKVDKKVEPKSCPPCPAPEAAGAPSVFLFPPKPKDTLMISRTPEVTCVVVDVSHEDPEVKFNWYVDGVEVHNAKTKPREEQYNSTYRVVSVLTVLHQDWLNGKEYKCKVSNKALPAPIEKTISKAKGQPREPQVYTLPPSRDELTKNQVSLLCLVKGFYPSDIAVEWESNGQPENNYKTTPPVLDSDGSFFLHSKLTVDKSRWQQGNVFSCSVMHEALHNHYTQKSLSLSPGK
light: QVQLQESGPGLVKPSETLSLTCTVSGGSVSSGDYYWTWIRQSPGKGLEWIGHIYYSGNTNYNPSLKSRLTISIDTSKTQFSLKLSSVTAADTAIYYCVRDRVTGAFDIWGQGTMVTVSSGGGGSGGGGSGGGGSGGGGSDIQMTQSPSSLSASVGDRVTITCQASQDISNYLNWYQQKPGKAPKLLIYDASNLETGVPSRFSGSGSGTDFTFTISSLQPEDIATYFCQHFDHLPLAFGGGTKVEIKGGGGSGGGGSGGGGSGGGGSEIVVTQSPATLSVSPGERATLSCRSSTGAVTTSNYANWVQQKPGQAPRGLIGGANKRAPGVPARFSGSLSGDEATLTISSLQSEDFAVYYCALWYSNLWVFGQGTKLEIKRTVAAPSVFIFPPSDEQLKSGTASVVCLLNNFYPREAKVQWKVDNALQSGNSQESVTEQDSKDSTYSLSSTLTLSKADYEKHKVYACEVTHQGLSSPVTKSFNRGECPPCPAPEAAGAPSVFLFPPKPKDTLMISRTPEVTCVVVDVSHEDPEVKFNWYVDGVEVHNAKTKPREEQYNSTYRVVSVLTVLHQDWLNGKEYKCKVSNKALPAPIEKTISKAKGQPREPQVYTLPPSRDELTKNQVSLLCLVKGFYPSDIAVEWESNGQPENNYKTTPPVLDSDGSFFLHSKLTVDKSRWQQGNVFSCSVMHEALHNHYTQKSLSLSPGK

EC50 [5]: 0.0106 µg/mL
EC50 [6]: 0.462 µg/mL
B3: 1.6.1M-Pa-Unmask iBiTE (bispecific antibody)
heavy: EVQLVESGGGLVQPGGSLRLSCAASGFTFNTYAMNWVRQAPGKGLEWVARIRSKYNNYATYYADSVKGRFTISRDDSKNTLYLQMNSLRAEDTAVYYCARHGNFGSSYVSYFAYWGQGTTVTVSSASTKGPSVFPLAPSSKSTSGGTAALGCLVKDYFPEPVTVSWNSGALTSGVHTFPAVLQSSGLYSLSSVVTVPSSSLGTQTYICNVNHKPSNTKVDKKVEPKSCPPCPAPEAAGAPSVFLFPPKPKDTLMISRTPEVTCVVVDVSHEDPEVKFNWYVDGVEVHNAKTKPREEQYNSTYRVVSVLTVLHQDWLNGKEYKCKVSNKALPAPIEKTISKAKGQPREPQVYTLPPSRDELTKNQVSLLCLVKGFYPSDIAVEWESNGQPENNYKTTPPVLDSDGSFFLHSKLTVDKSRWQQGNVFSCSVMHEALHNHYTQKSLSLSPGK
light: B2 light

EC50 [7]: 0.0264 µg/mL
EC50 [8]: 0.613 µg/mL
B4: 1.6.1M-Pa-CTR (antibody)
chain 1: B3 heavy
chain 2: B2 light

EC50 [5]: 0.027 µg/mL
EC50 [6]: ~99500 µg/mL
B5: 1.6.1M-Pa-Noncleavable BiTE (bispecific antibody)
heavy: QDGNEEMGGGSQDGNEEMGGIGGGSGGGGSGLSGAGNHGGGGSEVQLVESGGGLVQPGGSLRLSCAASGFTFNTYAMNWVRQAPGKGLEWVARIRSKYNNYATYYADSVKGRFTISRDDSKNTLYLQMNSLRAEDTAVYYCARHGNFGSSYVSYFAYWGQGTTVTVSSASTKGPSVFPLAPSSKSTSGGTAALGCLVKDYFPEPVTVSWNSGALTSGVHTFPAVLQSSGLYSLSSVVTVPSSSLGTQTYICNVNHKPSNTKVDKKVEPKSCPPCPAPEAAGAPSVFLFPPKPKDTLMISRTPEVTCVVVDVSHEDPEVKFNWYVDGVEVHNAKTKPREEQYNSTYRVVSVLTVLHQDWLNGKEYKCKVSNKALPAPIEKTISKAKGQPREPQVYTLPPSRDELTKNQVSLLCLVKGFYPSDIAVEWESNGQPENNYKTTPPVLDSDGSFFLHSKLTVDKSRWQQGNVFSCSVMHEALHNHYTQKSLSLSPGK
light: B2 light

EC50 [9]: 0.0186 µg/mL
EC50 [10]: 0.67 µg/mL
B6: 1.6.1M-Pa proBiTE after uPA digestion (bispecific antibody)
heavy: SDNHGGGGSEVQLVESGGGLVQPGGSLRLSCAASGFTFNTYAMNWVRQAPGKGLEWVARIRSKYNNYATYYADSVKGRFTISRDDSKNTLYLQMNSLRAEDTAVYYCARHGNFGSSYVSYFAYWGQGTTVTVSSASTKGPSVFPLAPSSKSTSGGTAALGCLVKDYFPEPVTVSWNSGALTSGVHTFPAVLQSSGLYSLSSVVTVPSSSLGTQTYICNVNHKPSNTKVDKKVEPKSCPPCPAPEAAGAPSVFLFPPKPKDTLMISRTPEVTCVVVDVSHEDPEVKFNWYVDGVEVHNAKTKPREEQYNSTYRVVSVLTVLHQDWLNGKEYKCKVSNKALPAPIEKTISKAKGQPREPQVYTLPPSRDELTKNQVSLLCLVKGFYPSDIAVEWESNGQPENNYKTTPPVLDSDGSFFLHSKLTVDKSRWQQGNVFSCSVMHEALHNHYTQKSLSLSPGK
light: B2 light

EC50 [11]: 0.244 µg/mL
EC50 [12]: 6.57 µg/mL
B7: 1.4.3M-Pa proBiTE (bispecific antibody)
heavy: QDGNEEMGGIGGGSQDGNEEMGGGGGSGGGSGLSGRSDNHGGSEVQLVESGGGLVQPGGSLRLSCAASGFTFNTYAMNWVRQAPGKGLEWVARIRSKYNNYATYYADSVKGRFTISRDDSKNTLYLQMNSLRAEDTAVYYCARHGNFGSSYVSYFAYWGQGTTVTVSSGGGSSGGGGSGGGGSQVQLQESGPGLVKPSETLSLTCTVSGGSVSSGDYYWTWIRQSPGKGLEWIGHIYYSGNTNYNPSLKSRLTISIDTSKTQFSLKLSSVTAADTAIYYCVRDRVTGAFDIWGQGTMVTVSSASTKGPSVFPLAPSSKSTSGGTAALGCLVKDYFPEPVTVSWNSGALTSGVHTFPAVLQSSGLYSLSSVVTVPSSSLGTQTYICNVNHKPSNTKVDKKVEPKSCPPCPAPEAAGGPSVFLFPPKPKDTLMISRTPEVTCVVVDVSHEDPEVKFNWYVDGVEVHNAKTKPREEQYNSTYRVVSVLTVLHQDWLNGKEYKCKVSNKALPAPIEKTISKAKGQPREPQVYTLPPSRDELTKNQVSLLCLVKGFYPSDIAVEWESNGQPENNYKTTPPVLDSDGSFFLHSKLTVDKSRWQQGNVFSCSVMHEALHNHYTQKSLSLSPGK
light: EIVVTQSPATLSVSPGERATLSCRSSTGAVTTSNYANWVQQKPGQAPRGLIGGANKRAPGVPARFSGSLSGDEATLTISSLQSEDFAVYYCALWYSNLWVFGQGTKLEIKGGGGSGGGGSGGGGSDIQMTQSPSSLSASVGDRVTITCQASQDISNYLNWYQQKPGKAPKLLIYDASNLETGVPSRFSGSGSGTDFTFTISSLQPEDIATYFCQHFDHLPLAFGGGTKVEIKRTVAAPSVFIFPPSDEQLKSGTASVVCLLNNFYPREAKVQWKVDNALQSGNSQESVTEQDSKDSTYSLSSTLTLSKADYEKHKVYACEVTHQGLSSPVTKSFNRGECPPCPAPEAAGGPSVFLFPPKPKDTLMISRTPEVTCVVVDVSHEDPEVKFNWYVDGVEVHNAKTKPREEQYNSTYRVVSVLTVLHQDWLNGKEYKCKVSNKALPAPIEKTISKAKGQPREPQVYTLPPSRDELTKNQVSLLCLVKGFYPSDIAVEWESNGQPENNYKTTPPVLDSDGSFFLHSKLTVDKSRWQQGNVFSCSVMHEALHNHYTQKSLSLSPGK

Source: US20250361299A1 (published 2025)
